Laboratory results taken from the nanobody polyreactivity screen of Harvey et al. (2022).

Assay: yeast display, Sf9 membrane polyspecificity reagent, FACS + sequencing; frameworks hold sequencing errors
Summary of the method: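 Using colony PCR, genes from sorted yeast display clones were amplified, then sequenced on MiSeq at 2 × 250 and filtered by CDR length. The clones had been stained with 10% biotinylated, detergent-solubilized Sf9 membrane reagent for 1 hour at 4 °C and sorted by FACS into low and high (top ~1%) gates on anti-HA and streptavidin fluorescence. Polyreactivity labels come from the gate of origin.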

Sequence | polyreactivity (PSR sort gate)
QVQLVESGGGLVQAGGSLRLSCAASGSIVNYYAMGWYRPAPGKERELVAAITSGGSTYYADSVKGRFTISRDNAKNTVYLQMNSLKAEDTAVYYCNKAFPYIYDYWGQGTQVTVSS | low polyreactivity
QVQLVESGGGLVQAGGSLRLSCAASGRTFPWYAMGWYRQAPGKERELVAAISWTGGSTYYADSVKGRFTISRDNAKNTVYLQMNSLKPEDTAVYYCAASPWYLKYEYWGQGTQVTVSS | low polyreactivity
QVQLVESGGGLVQAGGSLRLSCAASGSIFDVYAMGWYRPAPGKEREFVATITTSGGNTYYADSVKGRFTISRDHAKNTVHLQMNSLKPEDTAVYYCAKDRVKSPYLVYDSWGQGTQGTVSS | low polyreactivity
QVQLVESGGGLVQAGGSLRLSCAASGRTFEGNAMGWYRQSPGKERELVAAIRWRGGRTYYADSVKGRFTISRDNAKNTVYLQLNSLNPEDTAVYYCAAAGLPPPDNDYWGQGTQVTVSS | low polyreactivity
HVQLVESGGGLVQAGGSLRLSCAASGSTFNINAMGWYRQAPGKETEFVAAINYRGGSTYYADSVKGRFTISRDNSKNTVYLQMNSLKPEDTAVYYCAAASWKVRKKFDYWGQGTQVTVSS | low polyreactivity
QVQLVESGGGLVQAGGSLRLSCAASGRIFWWNTMGWYRQAPGKERELVASITGSGGRTSYADSVKGRFTISRDNAKNTVYLQMNSLKPEDTAVYYCAKEHVSKWSYPYYYWGQGTQVTVSS | high polyreactivity
QVQLVETGGGLVQAGGSLRLSCAASGNTFVLYAMGWYRQAPGKERELVAAIRRGVRTYADSVKGRFTISRDNAKNTFYLQMNSLIPDDTAVYYCAAYYVFLDNDYWGHGTQVTVSS | high polyreactivity
QVQLEESGGGLVQAGGSLRLSCAATGRIFSYAMGWYRQAPGKETELVAGISRSGGSTYYADSVKGRFTISSDNAKITVYLQMNSVKPEDTAVYYCARYDRGGRHYYYWGQGTQVTVSS | high polyreactivity
QVQLVESGGGLVQAGGSLRLSCAPSGIIFFAYAMGWYRQAPGKERELVAAISSSGGRTYYADSVKGRFTISRDNAKHTVYLQMNSLKPEETPVYYCNARWHGSFDYWGQGTQVTVSS | low polyreactivity
QVQLVESGGGLVQAGGSLRLSCAASGRTFSYYTMGWYRQAPGKERDLVAGIRSAGSTYYADSVKGRFTISRDNAKNTVYLLMNSLKPEDTAVYYCAARPYGGGRRSIYYYWGQGTQVTVSS | high polyreactivity
QVQLVESGGGLVQAGGSLRLSCAASGSIFDWYAMGWYRQAPGKERELVAAIDSSGSSTYYADSVKGRFTISRDNAKNTVYLQMNSLKPEDNAVYYCAADSDWIRDWFGSLYGSDYWGQGSQVTVSS | low polyreactivity
QVQLVESGGGLVQAGGSLRLSCAASGRTFGRNTMGWYRQAPGKERELVAAIDWSGGSTYYADSVKGRFTISRDNAKNTVYLQMNSLKPEDTAVYYCAAASRYPVNYYYWGQGTQVTVSS | high polyreactivity
QVQLVESGGGLVQAGGSLRLSCAASGYTIRANAMGWYRQAPGKERELVAAISRSGGSTYYADSVKGRFTISRDNAKNTVYLQMNSLKPEDTAVYYCNTRQQYQFNYWGQGTQVTVSS | high polyreactivity
QVQLVESGGGLVQAGGSLRLSCAASGSTLYTYAMGWYRQAPGKERELVATISWSGSSTYYADSVKGRFTISRDNAKNTVYLQMNSLKPEHTAVYYCAAPYHYWYRLDYWGQGTQVTVSS | high polyreactivity
QVQLVESGGGLVQAGGSLRLSCAASGFTFSTYAMGWYRQAPGKERELVAGITRRGGSTYYADSVKGRFTISRDNAKNTVYLQMNSLKPEDTAVYYCARDLLRVSSSRYNSWGQGTQVTVSS | high polyreactivity
QVQLVESGGGLVQAGGSLRLSCAASGFTFNNNAMGWYRQAPGKERELVAAITSSGGSTRYADSVKGRFTISRDNAKNTVYLQMNSLKPEDTAVYYCNAARQRKYSNWYDYWGQGTQVTVSS | high polyreactivity
QVQHVESGGGLVQAGGTLRLSCAASGSIFFWYGMGRYRQAPGKERELVAAITSGGISYYADSVKGRFTISRDNAKNTVYFQMNSLKPEDTAVYYCATRTYTYWGGSYPHYYWGQGSQVTVSS | high polyreactivity
QVQLVESGGGLVQAGGSLRLSCAASGSIFEFNAMGWYRQAHGKERELVSAITWSGTSTYYADSVKGRFTISRDNAKNTVYLQMKSLKPEDTAVYYCGADSTDYFYWGQGTQVTVSS | high polyreactivity
QVQLVESGGGIVQAGGSLRLSCAASGIIIFYKAMGWDRQAPGKERELVATISRRGGSTYYADSVKGRFTISRDNAKNTVYLQMNSLKPEDTAVYYCARDVGAGSKISRLSSYNYWGQGTQVTVSS | low polyreactivity
QVQLVESGGGLVQAGGSLRLSCAASGRILFWYAMGWYRQAPGKERELVAAISSSGGSTYYADSVKGRFTISRDNAKNTFYLLMNSLKPEDTAVYYCAADGVVDYGYWFVVEYEYWGQGTQVTVSS | high polyreactivity
QVQLVESGGGLDQAGGSLRLSCAASGGIFDDYAKGRYRQAPRKERELVAAISSSGGSTYYADSVKGRFTISLDNAKNTVYLQMNSLKPEYTAVYLCNADSRGSFGYWGQGTQVTVSS | high polyreactivity
QVQLVESGGGLVQAGGSLRLSCAASGFIFTYYTMGWYRPAPGKERELVAAISRTGSTNYADSVKGRFTISRDNAKNTVYLQMNSLKPEDTAVYFCNARYRGWLTLDGGYGYWGQGTQVTVSS | low polyreactivity

Sequence | polyreactivity (PSR sort gate)
QVQLVESGGGLVQAGGSLRLSCAASGSTFGKYAMGWYRQAPGKERELVAAISKSGGSTYYADSVKGRFTISRDNAKNTVYLQMNSLKPEDTAVYYCNAYPHAYTGSTREGDYWGQGTQVTVSS | high polyreactivity
QVQLQESGGGLVQAGGSLSCAASGNIFYIKYMGWYRQEPGKEREFVASIAHGTSTYYADSVKGLFTISRDNAKNTVYLQMNSLKPVDTAVYYCAAVTQSYYSYYYWGQGTQVTVSS | low polyreactivity
QVHLVESGGGLVQAGGSLRLSCAASGRTFRRYAMGWYRQAPGKERELVAAISYNGGRTYYADSVKGRFTISRDNAKNSVYLQMNILKPEDTAVYYCNAERGFSDYWGQGTQVTVSS | high polyreactivity
QVQLVESGGGLVQAGGSLRLSCAASGLIFARNAMGWYRQAPGKERELVAAITYSGSRTYYADSVKGRFTISRDNAKNTVYLQMNSLKPEDTAVYYCAARHRYSAVTEYNYWGQGTQVTVSS | high polyreactivity
QVQLVESGGGLVQAGGSLRLSCAASGGIFAVYAMGWYRQAPGKERELVAAITWRGGSTRYADSVKGRFTISRDNAKTTVYLQMNSLKPEDTAVYYCAVRSTGYPSRYYFWGQGTQVTVSS | high polyreactivity
QVQLVESGGGLVQAGGSLRLSCAASGSIFQPNGMGWYRQAPGQEREFVARIDRSGGSTYYADSVKGRFTISRDNAKNTVYLQMNSLKPEDTAVYYCHAAGEVIGYDYWGQGTQVTVSS | low polyreactivity
QVQLVESAGGLVQAGGSLRLSCAASGRIFTNNAMGWYRQAPGKERELVAAISRSGGRTYYADTVKGRFTISRDNAKNTVYVQMNSLKPEDTAVSYCAALGPYGSARRKYGYWGQGTQVTVSS | high polyreactivity
QVQLVESGGGLVQAGGSLRLSCAASGFTFLYNAMGWYRQAPGKERELVAAIDSGGNTNYADSVKGRFTISRDNAKITVYLQLNSLKPEDTAVYYCAADVVSGGQGTADYDYWGQGTQVTVSS | low polyreactivity
QVQLVESGGGLVQAGGSLRLSCAASGSIFLYYAMGWYRQAPGKERELVAGIRRGGRTNYADSVKGRFTISRDNAKNTVYLQMNSLKPEDTAVYYCAKGGYWGQGTQVTVSS | high polyreactivity
QVQLVESGGGLVQAGGSLRLSCAATGRIFGQYAMGWYRQAPGKESDFVAVISKRGGRTYYADSVMGRFTISRDNAKNTVYLQMNSLKPEDTAVYYCAAEYYPHDGAQYEYWGQGTQVTVSS | high polyreactivity
QVQLVESGGGLVQAGGSLRLSCAASGRTSYVYAMGWYRQAPGKERELVASITGSAGSTYYADSVKGRFTISRDNAKNTVYLQMNSLKPEDTAVYYCAVLRWRSWSSPGYYWGQGTQVTVSS | high polyreactivity
QVQLVESGGGLVQAGGSLRLSCAASGIIFRGNVMGWSRQAPGKERELVAAISGSGGRTYYADSVKGRFTISRDNAKNTVYLQMNSLKPEDTAVYYCNADKAIRYDYWGQGTQVTVSS | high polyreactivity
QVQLVESGGGLLQAGGSLRLSCAASGSIFRRNAMGWYRQAPGKERELVAAIRRGGSTNYADSVKGRFTISRDNAKNTVYLQMNSLKPEDTAVYYCAARGGSSGFYYWGQGTQVTVSS | high polyreactivity
QVQLVESGGCLVQAGGSLRLSCAASGRSFDKYTMGWYRQAPGKERELVAAISTRGGSTYYADSVKGRFTISRDNAKNTVYLQMNSLKPEDTAVYYCATVPRPKAYDYWGQGTQVTVSS | high polyreactivity
QVQLVESGGGLVQAGGSLRLSCAASGSIFRTNTMGWYRQAPGKERELVARINRGGRTYYADSVKGRFTISRDNAKNTVYLQMNSLKPEDTAVYYCAAAPFFPHWYGYDYWGQGTHVTVSS | high polyreactivity
QVHLVESGGGLVQAGGSLRLSCAASGSIFYVYAMGWYRQAPGKERELVAAITSSGTTNYADSVKGRFTISRDNAKNTVYLQMNSLKPEDTAVYYCAADPDSGQVPFDYWGQGTQVTVSS | low polyreactivity
QVQLVESGGGLVQAGGSLRLSCAASGRIFGTYAMGWYRQAPRKERELVAAITQSARSTYYADSVKGRFTISRDNAKNTVYLQMNSLKPEDTAVYYCAAVGYYTKRRFGYWGQGTQVTVSS | high polyreactivity
PLQLVESGGGLVQAGGSLRLSCAASGRIFGTYAMGWYRQAPGKERELVAAITLSDGSTYYADSVKGRFTISRDNAKNTVYLEMNSLIPDDTAVYYCAAVVDRFHPGLYEYWGQGTQVTVSS | low polyreactivity
QVQLVESGGGLVQAGGSLRLSCAASGSIFTVYGMGWYRQAPGKERELVAAISRSGGSTYYADSVKGRFTISRDNAKNTVYLLMNSLKPEDTAVYYCAADVYRTWFWWFDYWGQGTQVTVSS | high polyreactivity
QVQLEESGGGLDQAGGSLRLSCAASGSTYAYAMGWYRQAPRKERELVAAITRSGGSTYYADSVKGRFTISRDNAKNTVYLQMNSLKPEDTAVYYCRGKSTTWRGSQMDYWGQGTQVTVSS | high polyreactivity
QVQLVESGAGLVQAGGSLRLSCAASGRTFWSYAMGWYRQAPGKERELVAAIRTSDGITYYADSVKGRFTISRDNAKNTVYLQMNSLKPEDTAVYYCAAENWYNYDYWGQGTQVSVSS | low polyreactivity
